Results on 11 molecules are retold here after patent publication US20230382976, “APTAMER ASSEMBLIES FOR PROTEIN CROSSLINKING” (UNIVERSITY OF FLORIDA RESEARCH FOUNDATION, INC., published 2023).

Data set [1] concerns the target T1, Type I collagen (Rattus norvegicus, UniProt P02454;P02466 P02454:152-1207,P02466:86-1125). In words: maximum binding at 23.16% mass fraction ssDNA; SYBR Safe depletion assay, deionized water, RT. As to conditions: tags: rat tail tendon, Corning; chain copies: 2,1.
For data set [2], the target named is T1, Type I collagen. In words: maximum binding at 17.83% mass fraction ssDNA; SYBR Safe depletion assay, deionized water, RT. The conditions noted are these: tags: rat tail tendon, Corning; chain copies: 2,1.
For data set [3], the target named is T1, Type I collagen. In words: fiber formation, same as VEGF-R2 aptamer. As to conditions: tags: rat tail tendon, Corning; chain copies: 2,1. The text has this:
(§1) A VEGF-R2 targeting aptamer sequence was used in both a monovalent (single sequence) and divalent form (two single sequences tethered by a (PEG)6 linker). For all studies, we used a random sequence ssDNA of the same length and GC content as a control to determine the effect of the targeting and functionality of the DNA aptamer as compared to the effect of purely ssDNA, respectively.32 The VEGF-R2 targeting aptamer monovalent sequence is: ‘5-GATGTGAGTGTGTGACGAGCTACGACGTCTGGTGTAATTTATAAAGACACTGTGTATATCAACAACAGAACAAGGAAAGG-3’ (SEQ ID NO:14) .The random ssDNA oligomer monovalent sequence is: ‘5-TAATGAGAAGTATGTGTAGAGTCAATGAGATACGCAATTGGGAAGACAAGAGTATTGACTCGGACTGAGTACAATCGTCC-3’ (SEQ ID NO:15). […]
(§2) Fiber morphology for the different volume fractions of type I collagen and DNA aptamer was qualitatively assessed by phase and fluorescence microscopy using immobilized fibers. For fluorescence microscopy, immobilized fibers were stained with SYBR Safe DNA stain (Invitrogen) diluted at a 1:10,000 volume ratio in deionized water. […] To quantify surface coverage, full well images were taken with a Keyence BZ-X700 fluorescence microscope.

The target in data set [4] is T1, Type I collagen. In words: percent DNA bound rises with collagen; SYBR Safe depletion after centrifugation; fibers at 10-30% vol collagen. The conditions noted are these: tags: rat tail tendon, Corning; chain copies: 2,1; hairpins predicted. As for the experimental part:
In 96 well plate, mixtures of scrambled aptamer (1 μM) were mixed with rat tail type I collagen (0.3 mg/mL). Mixtures were at 25% increments from 0% to 100% volume fraction collagen with 1 replicate. Solutions were incubated at room temperature for 2 hours and then SYBR Safe DNA stain was added in a 2:1 ratio to the aptamer-collagen solutions and incubated for 30 minutes in the dark at room temperature. The solutions were centrifuged at 2000 g for 5 minutes and the supernatant was added to a 96 well plate giving 2 repeats per solution. Fluorescent intensity was measured by exciting at 488 nm and reading emission at 520 nm.

Data set [5] addresses T1, Type I collagen. In words: binding capacity identical to HAP aptamer; fibers form above about 5 pmol ssDNA/ug collagen. The conditions noted are these: tags: rat tail tendon, Corning; chain copies: 2,1. As for the experimental part: (§3) Complexes spontaneously formed upon mixing and were incubated at room temperature overnight followed by storage in solution at 4° C. until needed.
(§4) The amount of ssDNA in the DNA aptamer-collagen complex self-assembled fibers for different volume fractions of type I collagen and ssDNA oligomer was assessed fluorometrically by measuring the intensity of a fluorescent DNA stain. Solutions of different volume fractions were diluted at a 1:2 volume ratio of fiber solution to SYBR Safe DNA stain (Invitrogen). The stain concentrate was diluted first at a 1:10,000 volume ratio in deionized water. Then the mixtures were incubated protected from light for 30 minutes at room-temperature. After incubation, the mixtures were centrifuged at 2000 g for five minutes. Supernatant was plated in duplicate into black walled 96 well microplates and fluorescence intensity was measured by exciting at 488 nm and detecting at 520 nm using a UV-Vis Synergy H1 plate reader (BioTek). ssDNA in the supernatant was quantified using a standard curve fit with a 4-parameter logistic regression to correlate fluorescent intensity to ssDNA concentration. Individual standard curves were prepared for each ssDNA to account for any differences in DNA stain interaction with the two ssDNA sequences due to their secondary structure.

For data set [6], the target named is T1, Type I collagen. In words: binding capacity identical to random ssDNA; fibers form above about 5 pmol ssDNA/ug collagen. The conditions noted are these: tags: rat tail tendon, Corning; chain copies: 2,1. On the procedure:
as §3, §4

The target of data set [7] is T1, Type I collagen. In words: fiber formation by microscopy, deionized water. The conditions noted are these: tags: rat tail tendon, Corning; chain copies: 2,1.
Data set [8] concerns the target T1, Type I collagen. In words: maximum binding at 29.32% mass fraction ssDNA; SYBR Safe depletion assay, deionized water, RT. As to conditions: tags: rat tail tendon, Corning; chain copies: 2,1.
The target of data set [9] is T1, Type I collagen. In words: maximum binding at 12.27% mass fraction ssDNA; SYBR Safe depletion assay, deionized water, RT. The conditions noted are these: tags: rat tail tendon, Corning; chain copies: 2,1.
For data set [10], the target named is T1, Type I collagen. In words: fiber formation, same as random sequence; none above 50% vol collagen. As to conditions: tags: rat tail tendon, Corning; chain copies: 2,1.
Excerpt: as §1, §2

T1 sequence (P02454 152-1207, chain 1 of 2): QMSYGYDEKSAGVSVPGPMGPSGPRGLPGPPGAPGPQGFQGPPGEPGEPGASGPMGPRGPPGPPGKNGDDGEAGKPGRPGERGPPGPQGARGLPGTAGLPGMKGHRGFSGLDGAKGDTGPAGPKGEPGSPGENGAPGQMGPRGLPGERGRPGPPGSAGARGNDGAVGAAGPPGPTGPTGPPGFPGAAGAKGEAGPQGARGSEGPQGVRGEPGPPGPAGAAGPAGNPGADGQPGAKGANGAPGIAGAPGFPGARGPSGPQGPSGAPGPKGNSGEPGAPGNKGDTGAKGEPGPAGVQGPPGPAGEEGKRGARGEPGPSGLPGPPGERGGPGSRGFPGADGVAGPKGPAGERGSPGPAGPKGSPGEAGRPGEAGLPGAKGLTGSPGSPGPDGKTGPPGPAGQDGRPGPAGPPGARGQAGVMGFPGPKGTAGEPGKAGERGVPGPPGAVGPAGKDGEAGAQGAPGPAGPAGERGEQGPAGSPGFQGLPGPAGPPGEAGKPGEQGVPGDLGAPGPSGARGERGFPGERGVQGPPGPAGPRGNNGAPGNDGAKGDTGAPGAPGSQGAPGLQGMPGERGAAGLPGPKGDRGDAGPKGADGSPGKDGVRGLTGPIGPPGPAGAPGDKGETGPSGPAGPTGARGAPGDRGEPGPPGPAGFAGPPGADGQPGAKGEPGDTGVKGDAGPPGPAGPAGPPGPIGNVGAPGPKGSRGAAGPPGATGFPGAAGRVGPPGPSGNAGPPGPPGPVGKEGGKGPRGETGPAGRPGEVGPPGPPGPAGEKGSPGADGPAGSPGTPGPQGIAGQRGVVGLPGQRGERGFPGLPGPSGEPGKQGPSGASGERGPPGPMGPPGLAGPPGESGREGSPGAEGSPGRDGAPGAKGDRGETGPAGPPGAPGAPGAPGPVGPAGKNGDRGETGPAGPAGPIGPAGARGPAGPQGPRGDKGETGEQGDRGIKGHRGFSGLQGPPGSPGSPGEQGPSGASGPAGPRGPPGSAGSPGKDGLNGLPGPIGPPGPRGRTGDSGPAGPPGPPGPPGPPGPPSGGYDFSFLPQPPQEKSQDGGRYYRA
T1 sequence (P02466 86-1125, chain 2 of 2): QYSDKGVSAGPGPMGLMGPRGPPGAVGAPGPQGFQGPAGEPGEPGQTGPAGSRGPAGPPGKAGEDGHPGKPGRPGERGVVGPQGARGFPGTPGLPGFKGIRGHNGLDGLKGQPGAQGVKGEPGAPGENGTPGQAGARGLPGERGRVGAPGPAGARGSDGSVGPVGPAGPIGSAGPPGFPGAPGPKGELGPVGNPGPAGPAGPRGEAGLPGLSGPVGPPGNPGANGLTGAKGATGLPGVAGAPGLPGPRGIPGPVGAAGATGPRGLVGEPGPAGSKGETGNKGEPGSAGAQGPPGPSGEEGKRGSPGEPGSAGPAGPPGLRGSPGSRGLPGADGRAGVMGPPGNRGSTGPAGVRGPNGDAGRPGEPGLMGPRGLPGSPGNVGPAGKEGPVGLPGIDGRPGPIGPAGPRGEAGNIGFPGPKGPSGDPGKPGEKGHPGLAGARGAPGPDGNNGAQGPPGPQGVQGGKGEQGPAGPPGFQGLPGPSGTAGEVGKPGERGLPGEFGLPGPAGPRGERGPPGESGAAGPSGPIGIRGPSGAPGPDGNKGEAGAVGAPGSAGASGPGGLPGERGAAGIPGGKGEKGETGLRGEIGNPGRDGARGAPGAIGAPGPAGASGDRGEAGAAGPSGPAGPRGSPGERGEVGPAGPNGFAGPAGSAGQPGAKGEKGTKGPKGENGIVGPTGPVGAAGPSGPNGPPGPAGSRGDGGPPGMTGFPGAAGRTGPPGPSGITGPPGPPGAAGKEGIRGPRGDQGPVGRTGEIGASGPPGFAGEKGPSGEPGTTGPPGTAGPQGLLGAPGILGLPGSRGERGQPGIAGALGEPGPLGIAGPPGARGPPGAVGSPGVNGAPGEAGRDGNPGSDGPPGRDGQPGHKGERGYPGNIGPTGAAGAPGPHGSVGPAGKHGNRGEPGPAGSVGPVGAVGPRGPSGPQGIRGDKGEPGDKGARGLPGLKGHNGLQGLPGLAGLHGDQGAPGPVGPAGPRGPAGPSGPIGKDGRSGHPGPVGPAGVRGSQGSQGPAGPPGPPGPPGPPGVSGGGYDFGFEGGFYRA

B1: random 33 nt ssDNA (ssDNA)
DNA: CAGAGAATCTCCATTTTAGCACTTACCTGTGAC
On to B1, for which, in data set [1], the binding result was “binds”.

B2: random 90 nt ssDNA (ssDNA)
DNA: AATTTAGGAGCTGAAGGTCAGGGCACCAGCAGCCTTTGGAAGCCTACAGGACAACAGTCAGCCTGGCTAGAAAAAAAAACAATGTCACAG
Consider B2, for which the binding result in [2] is reported as “binds”.

B3: random ssDNA oligomer monovalent 80 nt (ssDNA)
DNA: TAATGAGAAGTATGTGTAGAGTCAATGAGATACGCAATTGGGAAGACAAGAGTATTGACTCGGACTGAGTACAATCGTCC
With B3, the binding result in data set [3] was “binds”.

B4: scrambled 80 nt aptamer (ssDNA)
DNA: TAAAACGCGCTTAAGCTGGTGTTACTCGAGCGGTCTTCTATTGAAATAATTTCTGAAGGCACACGACATATGATCTTCAG
modifications: 5' amino C6 (5AmMC6)
Consider B4, for which, in [4], the binding result is recorded as “binds”.

B5: random ssDNA 40 nt (Sequence R) (ssDNA)
DNA: TAAAACGCGCTTAAGCTGGTGTTACTCGAGCGGTCTTCTA
In the case of B5, in data set [5], the binding result is “binds”.

B6: HAP aptamer (Aptamer G) (ssDNA)
DNA: CAGGTGGGCGCGCTGTCGTGGGTGCTCGGGTGCGGTTGGG
Take B6: the binding result in [6] is recorded as “binds”.

B7: Aptamer G+ (ssDNA)
DNA: CAGGTGGGGGCGCTGTCGTGGGGGCTCGGGGGCGGTGGGG
Turning to B7, in data set [7], the binding result is reported as “binds”.

B8: Aptamer G- (ssDNA)
DNA: CAGGTGCGCGCGCTGTCGTGCGTGCTCGCGTGCGGTTGCG
Take B8: the binding result in data set [7] is reported as “binds”.

B9: random 45 nt ssDNA (ssDNA)
DNA: TCCCGCGAAATTAATACGACAGCACCACTTTTGGAGGGAGATTTC
Regarding B9, the binding result in data set [8] is recorded as “binds”.

B10: random 15 nt ssDNA (ssDNA)
DNA: GGAGCTGTTGGCGTA
B10: the binding result in data set [9] was “binds”.

B11: VEGF-R2 aptamer monovalent (ssDNA)
DNA: GATGTGAGTGTGTGACGAGCTACGACGTCTGGTGTAATTTATAAAGACACTGTGTATATCAACAACAGAACAAGGAAAGG
For the molecule B11, the binding result in [10] was “binds”.
